Laboratory results taken from article PMC3546728, “Bacterial Over-Expression and Purification of the 3′phosphoadenosine 5′phosphosulfate (PAPS) Reductase Domain of Human FAD Synthase: Functional Characterization and Homology Modeling” (International Journal of Molecular Sciences, 2012).

Key:
Assay in all cases: purified protein
Assay type in all cases: biochemical, Homo sapiens
[1] = tested on: T1, Cc1cc2nc3c(=O)[nH]c(=O)nc-3n(C[C@H](O)[C@H](O)[C@H](O)COP(=O)(O)O)c2cc1C; conditions: 100 μM ATP, 5 mM MgCl2, 50 mM Tris/HCl pH 7.5, 37 °C
T1 construct: C-terminal PAPS reductase domain, residues 329-587; vector pH6EX3; E. coli Rosetta (DE3); theoretical 31499 Da, ~28 kDa on SDS-PAGE

[2] = tested on: T2, Nc1ncnc2c1ncn2[C@@H]1O[C@H](COP(=O)(O)OP(=O)(O)OP(=O)(O)O)[C@@H](O)[C@H]1O; conditions: 2 μM FMN, 5 mM MgCl2, 50 mM Tris/HCl pH 7.5, 37 °C
T2 construct: C-terminal PAPS reductase domain, residues 329-587; vector pH6EX3; E. coli Rosetta (DE3); theoretical 31499 Da, ~28 kDa on SDS-PAGE

[3] = tested on: T3, O=P(O)(O)OP(=O)(O)O; conditions: reverse reaction, 0.5 μM FAD, 5 mM MgCl2, 50 mM Tris/HCl pH 7.5, 37 °C
T3 construct: C-terminal PAPS reductase domain, residues 329-587; vector pH6EX3; E. coli Rosetta (DE3); theoretical 31499 Da, ~28 kDa on SDS-PAGE

Sequence of 6-His-Δ1-328-hFADS (Homo sapiens) (chain, as listed by the source mutant): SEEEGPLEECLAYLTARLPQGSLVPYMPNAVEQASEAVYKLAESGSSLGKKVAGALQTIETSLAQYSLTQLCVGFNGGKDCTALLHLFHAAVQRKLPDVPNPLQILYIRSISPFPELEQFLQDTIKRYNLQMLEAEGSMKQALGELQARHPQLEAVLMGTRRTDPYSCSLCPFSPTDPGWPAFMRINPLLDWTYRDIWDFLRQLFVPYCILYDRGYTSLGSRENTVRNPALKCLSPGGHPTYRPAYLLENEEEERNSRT

Substance: 6-His-Δ1-328-hFADS (Homo sapiens)
- Km [1]: 0.24 ± 0.06 µM
- kcat [1]: 0.042 ± 0.001 s⁻¹
- Km [2]: 6.23 ± 1.5 µM
- kcat [2]: 0.042 ± 0.001 s⁻¹
- Km [3]: 92.0 ± 0.5 µM
- kcat [3]: 0.0037 ± 0.0009 s⁻¹
